From patent US20220089663A1, “PROTEINS AND FLUOROPHORE-CONTAINING COMPOUNDS SELECTIVE FOR NaV1.7” (MEMORIAL SLOAN KETTERING CANCER CENTER, priority 2019, published 2022)
Like-named read-outs stand apart in the source and are kept apart here.

Experiments:
Experiment in all cases: cell-based or functional assay
hNav1.7 (human), Q15858 [1] = molecular target: hNav1.7 (human), Q15858
hNav1.6 (human), Q9UQD0 [2] = molecular target: hNav1.6 (human), Q9UQD0
hNav1.5 (human), Q14524 = molecular target: hNav1.5 (human), Q14524
hERG, Q12809 = molecular target: T1, hERG, Q12809
T1 chain: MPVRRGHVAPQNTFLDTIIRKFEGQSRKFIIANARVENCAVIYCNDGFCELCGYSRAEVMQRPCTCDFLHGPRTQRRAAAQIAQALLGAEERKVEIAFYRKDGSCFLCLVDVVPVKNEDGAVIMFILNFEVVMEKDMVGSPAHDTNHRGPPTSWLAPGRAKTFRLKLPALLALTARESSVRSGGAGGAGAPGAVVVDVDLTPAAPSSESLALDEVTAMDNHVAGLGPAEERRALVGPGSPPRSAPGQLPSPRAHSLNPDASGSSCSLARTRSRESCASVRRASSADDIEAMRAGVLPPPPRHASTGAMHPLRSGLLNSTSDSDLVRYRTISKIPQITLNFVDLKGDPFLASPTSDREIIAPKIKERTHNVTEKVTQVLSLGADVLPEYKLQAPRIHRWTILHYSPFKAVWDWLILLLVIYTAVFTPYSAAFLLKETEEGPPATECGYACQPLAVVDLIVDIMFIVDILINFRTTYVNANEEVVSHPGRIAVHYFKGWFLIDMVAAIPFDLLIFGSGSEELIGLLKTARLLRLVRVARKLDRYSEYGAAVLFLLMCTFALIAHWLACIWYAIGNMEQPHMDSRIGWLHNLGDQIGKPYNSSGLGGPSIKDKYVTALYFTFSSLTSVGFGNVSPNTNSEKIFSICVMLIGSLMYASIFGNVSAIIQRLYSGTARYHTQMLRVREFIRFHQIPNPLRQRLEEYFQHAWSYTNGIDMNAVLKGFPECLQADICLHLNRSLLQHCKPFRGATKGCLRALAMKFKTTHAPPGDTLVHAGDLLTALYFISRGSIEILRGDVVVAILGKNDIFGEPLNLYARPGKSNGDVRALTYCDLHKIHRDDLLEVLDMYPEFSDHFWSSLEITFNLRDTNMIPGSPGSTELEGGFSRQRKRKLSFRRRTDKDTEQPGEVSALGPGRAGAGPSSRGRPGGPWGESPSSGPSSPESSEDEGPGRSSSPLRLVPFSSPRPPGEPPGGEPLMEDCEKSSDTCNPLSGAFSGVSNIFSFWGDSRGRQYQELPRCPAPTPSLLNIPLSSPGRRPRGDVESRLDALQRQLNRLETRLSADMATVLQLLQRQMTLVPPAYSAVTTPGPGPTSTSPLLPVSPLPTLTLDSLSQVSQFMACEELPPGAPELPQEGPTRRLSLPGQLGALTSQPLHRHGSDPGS

Kv2.1 = molecular target: Kv2.1
hNav1.1 (human), P35498 = molecular target: hNav1.1 (human), P35498
Cav1.1 = molecular target: Cav1.1
hNav1.3 (human), Q9NY46 = molecular target: hNav1.3 (human), Q9NY46
hNav1.2 (human), Q99250 = molecular target: hNav1.2 (human), Q99250
hNav1.4 (human), P35499 = molecular target: hNav1.4 (human), P35499
Nav1.8 = molecular target: Nav1.8
Nav1.9 = molecular target: Nav1.9
Cav1.3 = molecular target: Cav1.3
Cav2.2 = molecular target: Cav2.2
hNav1.6 (human), Q9UQD0 [3] = molecular target: hNav1.6 (human), Q9UQD0; remark: listed apart in the source
hNav1.7 (human), Q15858 [4] = molecular target: hNav1.7 (human), Q15858; remark: listed apart in the source

Binder: YCQKFLWTCDSERPCCEGLVCRLWCKIN (modifications not checked) [Hsp1a-FL]
- IC50, automated whole-cell patch clamp (hNav1.7 (human), Q15858 [1]): 62 nM

Binder: GNDCLGFWSACNPKNDKCCANLVCSSKHKWCKGKL (modifications not checked) [Hs1a]
- IC50, automated patch clamp (hNav1.6 (human), Q9UQD0 [2]): 168 nM
- IC50, automated patch clamp (hNav1.5 (human), Q14524): > 3000 nM
- IC50 (hERG, Q12809): > 3000 nM
- IC50 (Kv2.1): > 3000 nM
- IC50, automated patch clamp (hNav1.1 (human), P35498): 19.4 nM
- IC50 (Cav1.1): > 3000 nM
- IC50, automated patch clamp (hNav1.3 (human), Q9NY46): 107 nM
- IC50, automated patch clamp (hNav1.2 (human), Q99250): 82.2 nM
- IC50, automated patch clamp (hNav1.4 (human), P35499): > 3000 nM
- IC50, automated patch clamp (hNav1.7 (human), Q15858 [1]): 45.7 nM
- IC50 (Nav1.8): > 3000 nM
- IC50 (Nav1.9): > 3000 nM
- IC50 (Cav1.3): > 3000 nM
- IC50 (Cav2.2): > 3000 nM
- IC50, automated patch clamp (hNav1.6 (human), Q9UQD0 [3]): 19.2 nM
- IC50, automated patch clamp (hNav1.7 (human), Q15858 [4]): 26.9 nM

Binder: GNDCLGFWSACNPKNDKCCANLVCSSKHKWCKGKL (modifications not checked) [Hs1a-FL]
- IC50, patch clamp on HEK293 cells (hNav1.6 (human), Q9UQD0 [2]): 19.2 nM
- IC50, patch clamp on HEK293 cells (hNav1.5 (human), Q14524): > 3000 nM
- IC50, patch clamp on HEK293 cells (hNav1.1 (human), P35498): 19.4 nM
- IC50, patch clamp on HEK293 cells (hNav1.3 (human), Q9NY46): 107 nM
- IC50, patch clamp on HEK293 cells (hNav1.2 (human), Q99250): 81.2 nM
- IC50, patch clamp on HEK293 cells (hNav1.4 (human), P35499): > 3000 nM
- IC50, patch clamp on HEK293 cells (hNav1.7 (human), Q15858 [1]): 26.9 nM
